Results from PMC6161613, “Lack of correlation between surface expression and currents in epileptogenic AB-calmodulin binding domain Kv7.2 potassium channel mutants” (Channels, 2018).

Biological target: T1, Recombinant rat brain calmodulin (rat, UniProt P0DP29 1-149)
T1 construct: calmodulin, rat, recombinant; also called CaM; source: E. coli BL21 DE3, purified
Assay: pull-down; purified GST fusion proteins immobilised on GSH-Sepharose 4B beads; CaM (10 μg) added, 45 min, room temperature; 25 mM Hepes, 120 mM KCl, 5 mM NaCl, pH 7.5 with 5 mM EGTA (10 mM in the results text), no Ca2+; anti-CaM Western blot, band intensities quantified (n = 3)
Settings: both partners purified

binding result: binds
B1: GST-neurogranin (aa 1-78) (natural protein)
chain: MDCCTENACSKPDDDILDIPLDDPGANAAAAKIQASFRGHMARKKIKSGERGRKGPGPGGPGGAGVARGGAGGGPSGD
notes: neurogranin, aa 1-78, entry NP006167 as printed; also called Nrg; source: E. coli BL21 DE3, purified (GST fusion from pGEX-3X)
